T1: IL2 Receptor beta protein (Fc Chimera Active, Abcam plc) (human, UniProt P14784 27-240)
T1 construct: In the assay it was coupled to DyLight 649 conjugated Protein A; also called IL-2Rβ subunit; human Interleukin-2 receptor beta (CD122); Fc part of the bought chimera not given
T1 sequence (looked up): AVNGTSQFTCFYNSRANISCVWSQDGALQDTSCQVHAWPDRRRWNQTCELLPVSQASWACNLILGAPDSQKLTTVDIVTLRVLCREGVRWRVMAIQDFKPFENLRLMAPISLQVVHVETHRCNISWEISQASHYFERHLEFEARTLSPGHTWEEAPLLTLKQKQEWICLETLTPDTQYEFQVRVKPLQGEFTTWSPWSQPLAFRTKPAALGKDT

T2: Recombinant Human IL-4 Rα Fc Chimera protein (R&D Systems) (human, UniProt P24394 26-231)
T2 construct: In the assay it was coupled to DyLight 649 conjugated Protein A; also called IL-4Rα subunit; Fc part of the bought chimera not given
T2 sequence (looked up): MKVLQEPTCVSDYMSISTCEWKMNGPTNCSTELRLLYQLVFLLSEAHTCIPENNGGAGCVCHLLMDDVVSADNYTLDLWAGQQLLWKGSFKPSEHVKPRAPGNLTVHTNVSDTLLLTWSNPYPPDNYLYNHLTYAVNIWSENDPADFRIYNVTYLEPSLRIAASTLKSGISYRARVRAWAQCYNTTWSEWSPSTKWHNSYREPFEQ


Columns and labels:
[1] = molecular target: T1, IL2 Receptor beta protein (Fc Chimera …); experiment: bead-based flow cytometric immunoassay, receptor-Fc chimera/Protein A-DyLight 649 (FIG. 19C)
Text: (§1) Both goat anti-human IL-21 and rabbit anti-human IL-21 antibodies were initially tested using a Western blot technique to confirm suitable detection of the IL-21 variant proteins with the predicted size. The success of antibody-to-bead conjugation was verified using PE Goat anti-Rabbit IgG Detector (BD Biosciences). To detect the receptor interaction of bead-captured IL-21 variants with the Interleukin-21 receptor proprietary subunit, the Interleukin-4 receptor alpha subunit, the Interleukin-2 receptor alpha or the Interleukin-2 receptor beta, appropriate receptor-Fc-chimera proteins were coupled with a Protein-A-fluorochrome complex suitable for flow cytometric evaluation. […] 50 μl of antibody-coated beads and serial dilutions of IL-21 variant proteins, with final concentrations ranging from 100 pg/ml to 1 μg/ml, were incubated together with the fluorescence conjugated receptor-chimera-Protein-A complexes in excess in 96-well plates for 3 h on a titer plate shaker. […] Bead particles were discriminated on the basis of size and fluorescence (see FIGS. 19A and B) on a BD FACSCanto II system with BD FACSDiva software (BD Biosciences). […]

[2] = molecular target: T2, Recombinant Human IL-4 Rα Fc Chimera …; experiment: bead-based flow cytometric immunoassay, receptor-Fc chimera/Protein A-DyLight 649 (FIG. 19D)
Text: as §1

| binding result [1] | binding result [2] | Binder |
| --- | --- | --- |
| binds | – | IL-21/IL-2 hybrid protein (ligand, also called IL-21 variant) QGQDRHMIRMRQLIDIVDQLKNYVNDLVPEFLPAPEDVETNCEWSAFSCFQKAQLKSANTGNNERIINVSISNINVIVLELKGSETTFMCDSYEKKPPKEFLERFKSLLQKMIHQHLSSRTHGSEDS |
| – | binds | IL-21/IL-4 hybrid protein (ligand, also called IL-21/IL-4 hybrid variant; IL-21/IL-4 variant protein) QGQDRHMITLQEIIKTLNSLTEQKTLVPEFLPAPEDVETNCEWSAFSCFQKAQLKSAQQFHRHKQLIRFLKRLDRNLWGLAGLNSCPSCDSYEKKPPKEFLERFKSLLQKMIHQHLSSRTHGSEDS |
